In this test the target is mouse VASP (wild-type, full-length) (mouse, UniProt P70460 1-375). Put plainly: immunolabeling of protein-coated beads.
Chain of mouse VASP (wild-type, full-length) (P70460 whole entry): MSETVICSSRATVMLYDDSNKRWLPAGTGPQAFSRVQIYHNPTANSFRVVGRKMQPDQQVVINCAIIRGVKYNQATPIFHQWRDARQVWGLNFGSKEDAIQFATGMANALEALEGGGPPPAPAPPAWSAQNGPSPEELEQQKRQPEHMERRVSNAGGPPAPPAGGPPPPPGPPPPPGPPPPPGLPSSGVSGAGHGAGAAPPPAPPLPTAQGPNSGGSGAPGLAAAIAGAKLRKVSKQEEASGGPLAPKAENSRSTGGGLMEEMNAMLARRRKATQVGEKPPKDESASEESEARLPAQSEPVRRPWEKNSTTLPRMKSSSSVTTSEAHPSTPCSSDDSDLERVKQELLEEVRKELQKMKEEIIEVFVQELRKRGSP

B1: PRD-VCA-WAVE (PRD-VCA domain of human WAVE-2, Lys195-Asp498) (domain or fragment, UniProt Q9Y6W5 195-498, looked up)
chain: KIKTRKEEWEKMKMGQEFVESKEKLGTSGYPPTLVYQNGSIGCVENVDASSYPPPPQSDSASSPSPSFSEDNLPPPPAEFSYPVDNQRGSGLAGPKRSSVVSPSHPPPAPPLGSPPGPKPGFAPPPAPPPPPPPMIGIPPPPPPVGFGSPGTPPPPSPPSFPPHPDFAAPPPPPPPPAADYPTLPPPPLSQPTGGAPPPPPPPPPPGPPPPPFTGADGQPAIPPPLSDTTKPKSSLPAVSDARSDLLSAIRQGFQLRRVEEQREQEKRDVVGNDVATILSRRIAVEYSDSEDDSSEFDEDDWSD
As for B1, the binding result is reported as “binds”.

Source of the values: article PMC4279229 (Molecular Biology of the Cell, 2015).
